Consider one molecule from publication PMC12475165 (Nature Communications, 2025).

For this test, the target named is T1, EDC4 (endogenous, EBOV-infected cells) (UniProt Q6P2E9 1-1401).
T1 sequence: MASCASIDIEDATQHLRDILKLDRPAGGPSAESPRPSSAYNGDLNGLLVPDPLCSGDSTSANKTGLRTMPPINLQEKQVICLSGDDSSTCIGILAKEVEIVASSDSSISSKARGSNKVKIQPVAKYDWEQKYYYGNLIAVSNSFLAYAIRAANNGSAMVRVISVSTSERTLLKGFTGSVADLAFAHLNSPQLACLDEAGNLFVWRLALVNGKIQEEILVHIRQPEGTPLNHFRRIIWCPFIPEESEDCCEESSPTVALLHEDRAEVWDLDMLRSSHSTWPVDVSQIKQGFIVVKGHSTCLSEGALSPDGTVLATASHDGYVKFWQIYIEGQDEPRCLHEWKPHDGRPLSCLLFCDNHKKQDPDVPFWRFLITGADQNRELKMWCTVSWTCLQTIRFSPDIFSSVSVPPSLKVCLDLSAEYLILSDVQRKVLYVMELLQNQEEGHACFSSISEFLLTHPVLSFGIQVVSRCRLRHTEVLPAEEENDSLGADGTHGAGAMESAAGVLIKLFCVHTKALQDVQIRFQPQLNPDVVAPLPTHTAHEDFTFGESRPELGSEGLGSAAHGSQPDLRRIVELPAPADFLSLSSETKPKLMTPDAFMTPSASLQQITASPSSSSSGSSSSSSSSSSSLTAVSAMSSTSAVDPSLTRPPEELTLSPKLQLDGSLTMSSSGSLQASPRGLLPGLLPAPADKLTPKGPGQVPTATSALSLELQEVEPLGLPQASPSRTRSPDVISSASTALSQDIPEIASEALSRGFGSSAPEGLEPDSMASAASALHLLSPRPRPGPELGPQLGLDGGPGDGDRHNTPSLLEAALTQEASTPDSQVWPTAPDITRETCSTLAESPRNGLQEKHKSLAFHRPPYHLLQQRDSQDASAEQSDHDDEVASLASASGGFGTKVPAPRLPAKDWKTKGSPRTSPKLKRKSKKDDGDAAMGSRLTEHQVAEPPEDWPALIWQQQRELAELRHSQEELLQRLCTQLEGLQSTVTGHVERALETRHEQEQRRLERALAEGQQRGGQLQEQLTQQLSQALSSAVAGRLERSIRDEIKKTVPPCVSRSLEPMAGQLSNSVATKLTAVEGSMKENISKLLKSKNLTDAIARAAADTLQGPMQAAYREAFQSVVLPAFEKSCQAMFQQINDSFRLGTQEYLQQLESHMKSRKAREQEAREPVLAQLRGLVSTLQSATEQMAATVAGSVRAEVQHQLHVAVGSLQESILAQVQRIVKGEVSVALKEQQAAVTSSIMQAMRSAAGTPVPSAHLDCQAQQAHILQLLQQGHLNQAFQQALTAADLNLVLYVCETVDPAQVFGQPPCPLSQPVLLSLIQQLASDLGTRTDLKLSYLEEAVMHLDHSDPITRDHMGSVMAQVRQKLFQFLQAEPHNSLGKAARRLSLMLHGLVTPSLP
In words: proximity ligation. Conditions: partners not purified.

B1: VP35 made by EBOV in infected cells (natural protein)
chain: MTTRTKGRGHTAATTQNDRMPGPELSGWISEQLMTGRIPVSDIFCDIENNPGLCYASQMQQTKPNPKTRNSQTQTDPICNHSFEEVVQTLASLATVVQQQTIASESLEQRITSLENGLKPVYDMAKTISSLNRVCAEMVAKYDLLVMTTGRATATAAATEAYWAEHGQPPPGPSLYEESAIRGKIESRDETVPQSVREAFNNLNSTTSLTEENFGKPDISAKDLRNIMYDHLPGFGTAFHQLVQVICKLGKDSNSLDIIHAEFQASLAEGDSPQCALIQITKRVPIFQDAAPPVIHIRSRGDIPRACQKSLRPVPPSPKIDRGWVCVFQLQDGKTLGLKI
As to B1, the “PLA puncta per cell, fold over uninfected cells” value was found to be 6 fold.
